Target: VEGF-A (UniProt P15692 1-395)
Assay: SPR; unpublished data of the authors; format and conditions not told
Conditions: both partners purified

B1: Conbercept (Fc fusion)
chain: GRPFVEMYSEIPEIIHMTEGRELVIPCRVTSPNITVTLKKFPLDTLIPDGKRIIWDSRKGFIISNATYKEIGLLTCEATVNGHLYKTNYLTHRQTNTIIDVVLSPSHGIELSVGEKLVLNCTARTELNVGIDFNWEYPSSKHQHKKLVNRDLKTQSGSEMKKFLSTLTIDGVTRSDQGLYTCAASSGLMTKKNSTFVRVHEKPFVAFGSGMESLVEATVGERVRIPAKYLGYPPPEIKWYKNGIPLESNHTIKAGHVLTIMEVSERDTGNYTVILTNPISKEKQSHVVSLVVYVPP
modifications: seven N-glycosylation sites, all occupied (the N in the tryptic peptides 29-39 VTSPNITVTLK, 60-69 GFIISNATYK, 117-124 LVLNCTAR, 193-198 NSTFVR, 242-253 NGIPLESNHTIK, 267-281 DTGNYTVILTNPISK, 372-380 …); two inter-chain disulfide bonds at the Fc hinge
Kd: 0.429 nM
